Measured values as given in PMC8505397, “Development of peptides targeting receptor binding site of the envelope glycoprotein to contain the West Nile virus infection” (Scientific Reports, 2021).
Several values for one entry are separate records, joined by “and”; a condition that tells them apart may be missing. Identical values can stand only once. Positions of bridges follow the written chain, without caps; N, C: chain ends. No end group written: not given here.

B1: 7-mer cyclic peptide CP4 (ACX7CGGGS form of CIHSSTRAC) (peptide)
peptide: ACIHSSTRACGGGS
modifications: disulfide 2-10 (inferred)
notes: additional alanine at the N-terminus (ACX7CGGGS); peptide of phage clone CC4; C-terminal linker; source: E. coli SHuffle T5, purified; N-terminal tag cleaved with enterokinase and removed on nickel beads; not shown: His6, N-terminal, cleaved; 28 aa tag, N-terminal, cleaved
B2: 7-mer cyclic peptide CP2 (ACX7CGGGS form of CTKTDVHFC) (peptide)
peptide: ACTKTDVHFCGGGS
modifications: disulfide 2-10 (inferred)
notes: additional alanine at the N-terminus (ACX7CGGGS); peptide of phage clone CC2; C-terminal linker; source: E. coli SHuffle T5, purified; N-terminal tag cleaved with enterokinase and removed on nickel beads; not shown: His6, N-terminal, cleaved; 28 aa tag, N-terminal, cleaved
B3: 7-mer cyclic peptide CP12 (ACX7CGGGS form of CTYENHRTC) (peptide)
peptide: ACTYENHRTCGGGS
modifications: disulfide 2-10 (inferred)
notes: additional alanine at the N-terminus (ACX7CGGGS); peptide of phage clone CC12; C-terminal linker; source: E. coli SHuffle T5, purified; N-terminal tag cleaved with enterokinase and removed on nickel beads; not shown: His6, N-terminal, cleaved; 28 aa tag, N-terminal, cleaved
B4: 12-mer linear peptide LP3 (X12GGGS form of SGVYKVAYDWQH) (peptide)
peptide: SGVYKVAYDWQHGGGS
notes: peptide of phage clone LC3; C-terminal linker; source: E. coli SHuffle T5, purified; N-terminal tag cleaved with enterokinase and removed on nickel beads; not shown: His6, N-terminal, cleaved; 28 aa tag, N-terminal, cleaved
B5: 7-mer cyclic peptide CP6 (ACX7CGGGS form of CMQTQRAHC) (peptide)
peptide: ACMQTQRAHCGGGS
modifications: disulfide 2-10 (inferred)
notes: additional alanine at the N-terminus (ACX7CGGGS); peptide of phage clone CC6; C-terminal linker; source: E. coli SHuffle T5, purified; N-terminal tag cleaved with enterokinase and removed on nickel beads; not shown: His6, N-terminal, cleaved; 28 aa tag, N-terminal, cleaved
B6: 7-mer cyclic peptide CP15 (ACX7CGGGS form of CDPRHSKFC) (peptide)
peptide: ACDPRHSKFCGGGS
modifications: disulfide 2-10 (inferred)
notes: additional alanine at the N-terminus (ACX7CGGGS); peptide of phage clone CC15; C-terminal linker; source: E. coli SHuffle T5, purified; N-terminal tag cleaved with enterokinase and removed on nickel beads; not shown: His6, N-terminal, cleaved; 28 aa tag, N-terminal, cleaved
B7: 7-mer cyclic peptide CP16 (ACX7CGGGS form of CLAQSHPLC) (peptide)
peptide: ACLAQSHPLCGGGS
modifications: disulfide 2-10 (inferred)
notes: additional alanine at the N-terminus (ACX7CGGGS); peptide of phage clone CC16; C-terminal linker; also called C16; source: E. coli SHuffle T5, purified; N-terminal tag cleaved with enterokinase and removed on nickel beads; not shown: His6, N-terminal, cleaved; 28 aa tag, N-terminal, cleaved

How the values were obtained:
[1] = biological target: T1, rDIII (West Nile virus, UniProt P06935); assay: ELISA of the binding of 7-mer cyclic and 12-mer linear peptides to rDIII; settings: peptides coated through C-terminus in CovaLink NH plates; 1 µg rDIII; HisProbe-HRP; negative control subtracted
T1 construct: rDIII – recombinant domain III; made in house; host or cells: E. coli M15
T1 sequence (P06935 584-692 limits assumed): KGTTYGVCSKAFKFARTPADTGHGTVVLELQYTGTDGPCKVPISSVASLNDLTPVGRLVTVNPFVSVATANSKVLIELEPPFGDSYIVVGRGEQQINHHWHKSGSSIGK
Method: The 7-mer cyclic and 12-mer linear peptides were covalently bound in CovaLink NH microwell plates and their binding to rDIII was corroborated by ELISA. Details are presented in Supplementary Method S11.
Confirmation of the binding of 7-mer cyclic and 12-mer linear peptides to rDIII by ELISA. The 7-mer cyclic and 12-mer linear peptides were covalently bound in CovaLink NH microwell plates overnight at 4°C as per the manufacturer´s instructions (Thermo Fischer Scientific).
Unbound peptides were washed with PBS (pH 7.4) and non-specific sites were blocked with 0.5% BSA in PBS for 1 h at room temperature. After blocking, wells were washed 2 times for 2 min with CovaBuffer (2 M NaCl, 40 mM MgSO4.7H2O, 0.05% Tween 20, PBS; pH 7.2). One microgram of rDIII diluted in 0.05% PBST was added in separate wells and incubated for 1 h at room temperature with constant shaking. Wells were washed 3 times for 2 min with CovaBuffer and interaction was detected with HisProbe-HRP conjugate (1:5,000 dilution in 0.1% BSA in PBST; Thermo Fisher Scientific) for 30 min at room temperature with constant shaking. After 6 washings, the chromogenic reaction was developed using a 1-Step Ultra TMB-ELISA substrate (Thermo Fisher Scientific). After 25 min, the reaction was stopped with 2 M H2SO4 and absorbance was measured at 450 nm. For negative controls, either rDIII or peptides were excluded from the protocol. The assay was performed in triplicates. […]

[2] = biological target: T2, interaction between rDIII and ~ 15 kDa receptor of hBMECs (West Nile virus, UniProt P06935); assay: Blocking of interaction between rDIII and proteins of hBMECs by peptides (Western blot); type: binding, West Nile virus / human; settings: 2.5 µg (0.19 nM) rDIII pre-incubated with tenfold molar excess (1.9 nM) of peptide
T2 construct: rDIII – recombinant domain III; made in house; host or cells: E. coli M15
T2 sequence (P06935 584-692 limits assumed): T1 sequence (P06935 584-692 limits assumed)
Method: (§1) First, concentration-dependent ELISA and Western blot were performed to get the minimum concentration of rDIII required to show its interaction with hBMECs proteins. Details are presented in Supplementary Method S12 and Supplementary Method S13. Subsequently, the ability of 7-mer and 12-mer peptides to block the interaction between rDIII and proteins of hBMECs was tested. A tenfold molar excess of peptides was incubated with rDIII for 1 h at room temperature. Such pre-incubated rDIII was subsequently used in the assays. Details of both methods are described in Supplementary Method S12 and Supplementary Method S13. […]
Blocking of interaction between rDIII and proteins of hBMECs by peptides (Western blot).
Two hundred micrograms of proteins extracted from hBMECs were separated on 2-well PAGE […]
gel (12% polyacrylamide gel) and transferred on 0.45 μm nitrocellulose membrane (Amersham Protran; GE Healthcare) for 1 h at 30 V. Details of LDS-PAGE are described in Supplementary Methods S7. The membrane was cut horizontally to obtain proteins of molecular weight between ~10 kDa to ~25 kDa. Subsequently, this membrane was sliced vertically to obtain 0.3 cm strips, which were then used in Western blot (Supplementary Fig.
The NC strips with transblotted hBMECs proteins were first incubated with rDIII at various concentrations to find out the minimal concentration of rDIII required to detect the interaction with hBMECs proteins. Non-specific binding sites were blocked with 1% BSA in 0.05% TBST (pH 7.2) for 1 h at room temperature and constant shaking followed by a washing step for 5 min with 0.05% TBST. The NC strips were incubated with rDIII at different concentrations (5 µg, 2.5 µg, 2 µg, 1 µg, 500 ng) diluted in 1 mL of 0.05% TBST for 3 h at room temperature and constant shaking. After 3 washings with 0.05% TBST, strips were incubated with HisProbe-HRP conjugate (1:5,000 dilution in 0.1% BSA in 0.05% TBST; Thermo Fisher Scientific) for 30 min at room temperature. Six washings, each of 5 min were performed before incubating the strips in SuperSignal chemiluminescence substrate (Thermo Fisher Scientific). The signal was captured on the C-DiGit Blot Scanner (Odyssey CLx, LI-COR Biosciences). For negative control, rDIII was excluded from the above-mentioned protocol.
To block the interaction, the NC strips were blocked as described above.
Simultaneously, 2.5 µg (0.19 nM) of rDIII were pre-incubated with 2.75 µg of each peptide (10-fold molar excess; 1.9 nM) in TBS for 1 h at room temperature. Further on, strips were incubated with pre-incubated rDIII for 3 h at room temperature with constant shaking. After 3 washings with 0.05% TBST, strips were incubated with HisProbe-HRP conjugate as described above. […]

[3] = biological target: T3, interaction between rDIII and proteins of hBMECs (West Nile virus, UniProt P06935); assay: Blocking of interaction between rDIII and proteins of hBMECs by peptides (ELISA); type: binding, West Nile virus / human; settings: rDIII 0.15 nM pre-incubated with tenfold molar excess (1.5 nM) of peptide; ELISA
T3 construct: rDIII – recombinant domain III; made in house; host or cells: E. coli M15
T3 sequence (P06935 584-692 limits assumed): T1 sequence (P06935 584-692 limits assumed)
Method: as §1
Blocking of interaction between rDIII and proteins of hBMECs by peptides (ELISA). First, different concentrations of rDIII were tested to get the minimum concentration of rDIII required to show the interaction with hBMECs proteins. Protein extract of hBMECs (4 μg/well) diluted in coating buffer (0.5 M Na2CO3, 0.5 M NaHCO3; pH 9.5) was incubated in the microtiter wells for overnight at 4°C. Unbound hBMECs proteins were washed with PBS (pH 7.3) containing 0.05% Tween 20 (0.05% PBST) and non-specific binding sites were blocked with 0.5% BSA in 0.05% PBST. rDIII at different concentrations (5 µg, 2.5 µg, 2 µg, 1 µg, 500 […]
ng, 250 ng, 125 ng, and 62.5 ng) diluted in 0.05% PBST was added into wells and incubated for 3 h at room temperature and constant shaking. Wells were washed 3 times with 0.05% PBST and incubated with HisProbe-HRP conjugate (1:5,000 dilution in 0.1% BSA in 0.05% PBST; Thermo Fisher Scientific) for 30 min at room temperature and constant shaking. […] The reaction was stopped after 25 min with 2 M H2SO4 and the absorbance was measured at 450 nm. […]
After blocking, the wells were washed 3 times with 0.05% PBST, pre-incubated rDIII was added and incubated for 3 h at room temperature with constant shaking. […] The reaction was stopped after 25 min with 2 M H2SO4 and the absorbance was measured at 450 nm. hBMECs proteins incubated with untreated rDIII were used as a positive control. […]

[4] = biological target: T4, recombinant domain III (DIII) of the envelope (E) glycoprotein of West Nile virus (West Nile virus); assay: ELISA; blocking ELISA: rDIII (2 µg, printed as 0.15 nM) pre-incubated 1 h at room temperature with a tenfold molar excess (1.5 nM) of peptide, then added to coated hBMEC proteins; negative control (no rDIII) subtracted; settings: both partners purified
T4 chain: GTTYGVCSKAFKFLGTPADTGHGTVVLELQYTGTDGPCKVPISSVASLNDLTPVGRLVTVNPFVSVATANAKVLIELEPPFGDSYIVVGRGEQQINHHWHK

[5] = biological target: T4, recombinant domain III (DIII) of the …; assay: cell-based or functional assay

Molecule	A450, ELISA of peptide binding to rDIII [1]	inhibition of the interaction between rDIII and ~ 15 kDa hBMECs receptor (Western blot) [2]	inhibition of the interaction between rDIII and hBMECs proteins [3]	A450 of rDIII on proteins of hBMECs after pre-incubation with the peptide [4]	percent inhibition of rDIII binding to proteins of hBMECs [4]	neutralisation of infection of cultured cells by virus like particles (C, M and E proteins, luciferase reporter), EC50; the peptide blocks DIII binding to endothelial cells [5]
CMQTQRAHC (ACMQTQRAHCGGGS; disulfide 2-10 (inferred)) [CP6]	> 1.5	did not show clear inhibition of the interaction				
CTNANHYFC (ACTNANHYFCGGGS; disulfide 2-10 (inferred)) [CP7]	> 1.5		37%			
HYSWSWIAYSPG (HYSWSWIAYSPGGGGS; left off: His6, N-terminal, cleaved | 28 aa tag, N-terminal, cleaved) [LP19]	0.082					
CDPRHSKFC (ACDPRHSKFCGGGS; disulfide 2-10 (inferred)) [CP15]	> 1.5	did not show clear inhibition of the interaction				
SGVYKVAYDWQH (SGVYKVAYDWQHGGGS; left off: His6, N-terminal, cleaved | 28 aa tag, N-terminal, cleaved) [LP3]	2.564 and > 1.5	did not show clear inhibition of the interaction				
B1				0.346	67%	17 nM
B2				0.117	89%	2.43 nM
B3				0.418	61%	10.4 nM
B4				0.647	39%	
B5				0.56	47%	
B6				0.423	60%	
B7				0.427	60%	14.8 nM
